Data taken from the nanobody polyreactivity screen of Harvey et al. (2022).

Test: yeast display, Sf9 membrane polyspecificity reagent, FACS + sequencing; frameworks hold sequencing errors
Outline: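 Genes from sorted yeast were amplified by colony PCR, read by MiSeq 2 × 250 sequencing and filtered on CDR length. These cells carried a synthetic nanobody library in Saccharomyces cerevisiae BJ5465 and were sorted by FACS into low and high (top ~1%) gates on anti-HA and streptavidin fluorescence. Polyreactivity is labelled according to the gate of origin.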

| Sequence | polyreactivity (PSR sort gate) |
| --- | --- |
| QVQLVDSGGGLVQAGGSLRLSCAASGSTFDAYAMGWYRQAPGKERELVAGISSGGSYEYAESVKGRFTISRDNAKNTVYVQMNSLKPEDTAVYYCAADSRQSDYYYQPTKFDYWGQGTQVTVSS | low polyreactivity |
| QVQLVDSGGGLVQAGGSLRLSCAASGSTFESYAMGWDRQAPGKERELVAAISTNGGRTRYADSVKGRFTISRDNAKNTVYLQMNSLKPVDTAVYYCATYVRGVYASSGYDYWGQGTQVTVSS | high polyreactivity |
| QVQLVDSGGGLVQAGGSLRLSCAASGSTFGPYAMGWYRQAPGKERELVAAISGSGGTTYYADSVKGRFTMSRDNSKNTVYLQMNSLKPEDTAVYDCAAYPRWTYWGYVERYYWGQGTQVTVSS | high polyreactivity |
| QVQLVDSGGGLVQAGGSLRLSCAASGSTFGSYAMGWYRQAPGKERELVAAISWNGGRTYYADSVKGRFTISRDNAKNTVYLQMNSLKPEDTAVYYCAKVVKYQSGGGLDYWGQGTQVTVSS | high polyreactivity |
| QVQLVDSGGGLVQAGGSLRLSCAASGSTFKYYAMGWYRQAPGKERELVAAISGRGGRTYYADSVKGRFTISRDHAKNTVYLQMNSLKPEDTAVYYCNAPFLGAHHYGYEYWGQGTQVTVSS | high polyreactivity |
| QVQLVDSGGGLVQAGGSLRLSCAASGSTFNPYAMGWYRQAPGKERELVAGISWSGGSTYYADSVKGRFSISRDNAKNTVYLQMNSLKPEDTAVYYCAVVVYWSVIYDFWGQGTQVTVST | low polyreactivity |
| QVQLVDSGGGLVQAGGSLRLSCAASGSTFRYNAMGWYRQAPGKERELVAAIDKRGDSTYADSVKGRFTISRDNAKNTVYLQLNSLKPEDTAVYYCAADSDSKYNYGFLWDTYEYWGQGTQVTVSS | low polyreactivity |
| QVQLVDSGGGLVQAGGSLRLSCAASGSTFRYNAMGWYRQAPGKERELVAAIDKRGDSTYADSVKGRFTISRDNAKNTVYLQMNSLKPEDTAVYYCAADSDSKYNYGFLWDTYEYWGQGTQVTVSS | low polyreactivity |
| QVQLVDSGGGLVQAGGSLRLSCAASGSTFVQYAMGWYRPAPGKERELVAAISTGGSTNYADSVKGRFTISRDNAKNTVYLEMNSLKPEDTAVYYCNVAVWTIVQSLYPYDYWGQGTQVTVSS | low polyreactivity |
| QVQLVDSGGGLVQAGGSLRLSCAASGSTFWYNAMGWYRQAPGKERELVAANSISDGNTYYADSVKGRFTISRDNAKNTVFLQMYSLKPEDTAVYYCNAGYWYDGPDYITEYDYWGQGTQVTVSS | low polyreactivity |
| QVQLVDSGGGLVQAGGSLRLSCAASGSTIPIYAMVWYRQAPGKERELVARITWSGGSTYYADSVKGRFTISRDNAKNTVYLQMNSLKPEDTAVYYCAAVVITTPYDRYYYWGQGTQVTVSS | high polyreactivity |
| QVQLVDSGGGLVQAGGSLRLSCAASGSTIPNYAMGWYRQAPGKERELVADIDSSGGSTYYADSVKGRFTISRDNAKNTVYLQMNSLKPEDTAVYYCAAGYFWYDVLNSRVLVWNNYWGQGTQVTVSS | high polyreactivity |
| QVQLVDSGGGLVQAGGSLRLSCAASGSTLNSYVIGWYRQAPGKERELVATIRSGSSTNYADSVKGRFTISRDNAKNTVYLQMNSLKPEDTAVYYCAADAYSLCYDSWGQGTQVTVSS | low polyreactivity |
| QVQLVDSGGGLVQAGGSLRLSCAASGSTSYWYAMGWYRLAPWKEMELFATIRSRGGSTSYADSVKGRFTISRDNAKNTVYLQMNSLKPEDTAVYYCAVEYQSWKGWWFDYWGQGTQVTVSS | high polyreactivity |
| QVQLVDSGGGLVQAGGSLRLSCAASGSTVQYYAMGWYRQAPGKERELVAAITHSGTRTYYADSVKGRFTISRDNAKNTVYLQINSLKPEDTAVYYCAARGYGKYDYWGQGTQVTVSS | high polyreactivity |
| QVQLVDSGGGLVQAGGSLRLSCAASGYTFVGYAMGWSRQAPGKERELVAVISGSGGSTRYADSVKGRFTISRDNAKNTVYLQMNSLKPEDTAVYYCAARQPRTQAVYEGYYWGQGTQVTVSS | high polyreactivity |

| Sequence | polyreactivity (PSR sort gate) |
| --- | --- |
| QVQLVDSGGGLVQAGGSLRLSCAASVRIFTINAMGWYRPAPGKDRELVAAISDGGGSTYYADSVKGRFTISRYNAKNTVYLQMNSLKPEDTAVYYCARKSWPKERRVDPGYDYGGQGTQVTVSS | low polyreactivity |
| QVQLVDSGGGLVQAGGSLRLSCASSGFIFAVYAMGWYRQAPGKERELVARISWSGGSTYYADSVKGRFTISRDNAKNTVYLQMNSLKPEDTAVNYCWGQGTQVTVSS | low polyreactivity |
| QVQLVDSGGGLVQAGGSLRLSCASSGRIFHGYAMGWYRHAPGKERELVAAIDEDGGSTYYADSVKGRFTISRDNAKNTVYLQMNSLKPEDTAVYYCATDALYTYGYDYWGQGTQVTVSS | low polyreactivity |
| QVQLVDSGGGLVQAGGSLRLSCDASGFIFERYAMGWYRQAPGKERELVAGIYSGGSTYYADSVKGRFTISRDNAKNTVYLQMNSLKPEDTAVYYCAPYRRQHIIYNYWGQGTQVTVSS | high polyreactivity |
| QVQLVDSGGGLVQAGGSLRLSCDASGSTFRGYAMGWYRKAPGKERELVAAISSRGARTHYADSLKGRFTISRDNAKNNVYLQMNSLKPEDTAVYYCNKRQVFFSTGEYEFDYWGQGTQVTVSS | low polyreactivity |
| QVQLVDSGGGLVQAGGSLRLSCPASGITLNHYVMGWYRQAPAKETELVAAISSSGGSTYYADSVKGRFTISRDNAMITVYLQMNSLKPEDTAVYYCAKDYNGRYTWRYEYWGQGTQVTVSS | high polyreactivity |
| QVQLVDSGGGLVQAGGSLRLSCPASGSIISVYARGWYRQAPGKERELVADITGTGDTYYADSVKGRFTISRDKAKNTVYLHRNSLKPDDTAGYYCNTVYELYYDPSVTEDYWGQGTQVTVSS | low polyreactivity |
| QVQLVDSGGGLVQAGGSLRLSCSASVRTFRGTAMGWYRHAPGKEREMVAPITYRTGSKYYPDSVKGRFTNSRDNAKNTVYLLLNSLKPEDSAVYYCAAVSGRSYDKDYFWGQGTQVTVSS | high polyreactivity |
| QVQLVDSGGGLVQAGGSLRLSSAASGFIFQANAMGSSRQAPGKERELVAAIDDGDSTYADSVKGRFTISRDNAKNSVYLQMNSLKPEDTAVYYCATRRNRSYDYWGQGTQVTVSS | low polyreactivity |
| QVQLVDSGGGLVQAGGSLRLTCAASGRTFWKYCKGWYRQAPGQERELVAVMSRPAGSTYYADSVKGRFPISRDNAKNTGYLLLNRLKPEDTAVYSCAKRPKNKPVLGDYDHWGQGTQVTVSS | low polyreactivity |
| QVQLVDSGGGLVQAGGSLRLTCAASGTFYYYAMGWNRQAPGKERELVAAISYSGGRTYYADSVKGRFTISRDNAKNTVYLQMNSLKPEDTAFYYCNTDARSKKYIFDFDYWGQGTQVTLSS | high polyreactivity |
| QVQLVDSGGGLVQAGGSLRLTCGSSGSIFYYYVMGLYIQAHGKERELVAAISSGGGTNYSDSVKGRFTISRYNAKNTVYLQMNSLKPEDTAVYYCAKASAYGLANDYDYCGQGTQVTVSS | low polyreactivity |
| QVQLVDSGGGLVQAGGSLSLSCAASGFTFVRYAMGWYRQAPGKERELVAAISGRGGSTYFADSVKGRFTISRDYAKNTVYLQMNSLKPDDTAVYYCATDYSRTFDYWGQGTQVTVSS | high polyreactivity |
| QVQLVDSGGGLVQAGGSLSLSCAASGRTFARYTMGWSRQAPGKERELLAVISRSGGSTYYADSVKGRFTISRDNAKNSVYLKKNSLKQEDTAVYYCAAGYFVVTTLEYYFWGQGTQVTVSS | high polyreactivity |
| QVQLVDSGGGLVQAGGSLSLSCAASGRTFNYKAMGWYRQAPGKERELVAAISWGGGSTFYADSVKGRFTISRDNAKNTVYLEMNSLKPEDTAVYYCAAYRQYGNRGAYYSWGQGTQVTVSS | low polyreactivity |
| QVQLVDSGGGLVQAGGSLSLSCAASGRTFYPYAMGWYRQAPGKERELVARISRGGRTNYADSVKGRFTISRDNAKNTVYLQMNSLKPEDTAVYYCAAVYYGSYFITEDYWGQGTQVTVSS | low polyreactivity |
